Laboratory results reported in PMC2553845, “A Specificity Map for the PDZ Domain Family” (PLoS Biology, 2008).
Where no end group is shown, it is not given here.

Legend:
Assay in all cases: ELISA; competition ELISA as described in ref. 20: synthetic peptide in solution blocks PDZ domain binding to immobilized peptide; IC50 = peptide concentration that blocked 50% of binding; no detectable interaction = IC50 > 500 μM
Settings in all cases: both partners purified
SCRIB PDZ domain 2 = target: T1, SCRIB PDZ domain 2 (human, UniProt Q14160 862-950)
T1 construct: also called SCRIB-2
T1 sequence (looked up): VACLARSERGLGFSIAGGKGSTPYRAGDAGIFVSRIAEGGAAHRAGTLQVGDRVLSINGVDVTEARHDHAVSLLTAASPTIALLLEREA

SCRIB PDZ domain 3 = target: T2, SCRIB PDZ domain 3 (human, UniProt Q14160 1004-1093)
T2 construct: also called SCRIB-3
T2 sequence (looked up): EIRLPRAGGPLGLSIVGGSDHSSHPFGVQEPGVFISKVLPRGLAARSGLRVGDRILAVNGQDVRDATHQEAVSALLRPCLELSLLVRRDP

SCRIB PDZ domain 1 = target: T3, SCRIB PDZ domain 1 (human, UniProt Q14160 728-815)
T3 construct: also called SCRIB-1
T3 sequence (Q14160 728-815): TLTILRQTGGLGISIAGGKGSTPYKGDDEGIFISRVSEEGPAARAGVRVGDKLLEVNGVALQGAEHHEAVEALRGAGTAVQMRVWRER

Measured: IC50

RQIKIWFQNRRMKWKKRSWFEAWA (not fully specified (C-terminus)) [designed nonbinding peptide Π–RSWFEAWA (peptide 15)]
> 500 µM: SCRIB PDZ domain 2 | SCRIB PDZ domain 3 | SCRIB PDZ domain 1
